Data reported in patent US20060002901A1, “Composition containing eosinophil cationic protein” (priority 2002, published 2006).

B1: RNaseA: RNaseA, added as comparison protein alongside ECP (protein, UniProt P61823 27-150, looked up)
Ribonuclease pancreatic: KETAAAKFERQHMDSSTSAASSSNYCNQMMKSRNLTKDRCKPVNTFVHESLADVQAVCSQKNVACKNGQTNCYQSYSTMSITDCRETGSSKYPNCAYKTTQANKHIIVACEGNPYVPVHFDASV
B2: eosinophil cationic protein (protein, UniProt P12724 28-160, looked up)
Eosinophil cationic protein: RPPQFTRAQWFAIQHISLNPPRCTIAMRAINNYRWRCKNQNTFLRTTFANVVNVCGNQSIRCPHNRTLNNCHRSRFRVPLLHCDLINPGAQNISNCTYADRPGRRFYVVACDNRDPRDSPRYPVVPVHLDTTI

Legend:
BALB/c 3T3 cells [1] = assay: Proliferation of BALB/c 3T3 cells in low-serum medium, phase-contrast microscopy; format: cell-based, mouse; conditions: 0.5% FBS, 1 μM ECP, 60 pM bFGF, 48 hours, FIG. 4
Description: In DMEM culture medium containing 10% FBS in a 24-well culture plate, BALB/c 3T3 cells were inoculated at a concentration of 2×10^4 cells/well, and cultured. […] After 24 hours, 1 μM ECP or RNaseA, and 60 pM bFGF were added to the culture solution in combination, respectively, then the culture was continued for an additional 48 hours.

BALB/c 3T3 A31-K cells = assay: Proliferation of BALB/c 3T3 cells, number of living cells after 48 hours; format: cell-based, mouse; conditions: 10% FBS, FIG. 2
Description: In DMEM culture medium containing 10% FBS in a 96-well culture plate, BALB/c 3T3 A31-K cells were inoculated at a concentration of 1000 cells/well, and after 24 hours, ECP or RNaseA was added to the culture solution to a final concentration of 1 μM, respectively. After the culture was continued for 48 hours, the number of living cells was counted.

BALB/c 3T3 cells [2] = assay: Time-course proliferation of BALB/c 3T3 cells, living cells counted every 24 hours; format: cell-based, mouse; conditions: 10% FBS, 4 days, medium changed on day 2, FIG. 3
Description: In DMEM culture medium containing 10% FBS in a 96-well culture plate, BALB/c 3T3 cells were inoculated at a concentration of 1000 cells/well. After the cells were cultured for 24 hours, 1 μM ECP or 1 μM RNaseA was added to the culture solution to a final concentration of […], respectively. The culture was continued for 4 days, and the number of living cells was counted for every 24 hours. Incidentally, the culture medium was changed on day 2 of the culture.

[3] = test system: myocardial cell derived from newborn rat; assay: Number of heartbeats of myocardial cells; format: cell-based; conditions: ECP 10 ng, 100 ng or 1 μg per ml; 24 hours; FIG. 9
Description: Myocardial cells isolated from a newborn rat were dedifferentiated in the same manner as in Example 7 and ECP was added to the culture solution (10 ng, 100 ng or 1 μg per ml). Twenty-four hours after the addition, the number of heartbeats was counted.
Further, the effects of a ROCK inhibitor (Y27632) on the effects of ECP on increase in the number of heartbeats of myocardial cell were studied. The adding amounts of Y27632 were set at 0, 5, 10 and 15 μM, and the ECP concentration was set at 100 ng/ml.

[4] = test system: myocardial cell derived from newborn rat; assay: Immunofluorescence staining of dedifferentiated myocardial cells; format: cell-based; conditions: ECP 100 ng/ml; 24 hours; FIG. 8
Description: The cultured myocardial cells were cultured in SFM (2 μM BrDU, 100 units/ml penicillin, 100 μg/ml streptomycin) for 48 hours, whereby the cells were dedifferentiated. Then, the culture medium was changed, and ECP was added to a final concentration of 100 ng/ml. After an additional 24 hours, the cells were washed three times with 1× PBS for 10 minutes each, then dipped in 4% paraformaldehyde at room temperature for 30 minutes, whereby the cells were fixed. Then, the cells were dipped in PBS containing 0.25% Triton-X100 at room temperature for 15 minutes, and reacted in a blocking buffer containing BSA, to which anti-ENH1 antibody had been added at a ratio of 1:40, or anti-α-actinin antibody had been added at a ratio of 1:100, at 4° C. overnight. Then, a 20-minute washing with PBS containing 0.03% Triton-X100 was performed and the washing was repeated three times. To the blocking buffer, Cy3-labeled anti-mouse antibody and Cy2-labeled anti-rabbit IgG antibody were added (1:250 dilution in blocking buffer), respectively, and reaction was performed at 4° C. for 4 hours. After the reaction, a 20-minute washing with PBS containing 0.03% Triton-X100 was performed again and the washing was repeated three times. Then, water content was removed and 90% glycerol was added.

[5] = test system: mouse fibroblast cell line (BALB/c 3T3); assay: Proliferation of cell lines derived from normal tissue, 10% FBS, MTT; format: cell-based; conditions: ECP 0 to 10 μM, 48 hours, FIG. 1
Description: (§1) The effects of ECP on the proliferation of a mouse fibroblast cell line (BALB/c 3T3), aortic smooth muscle cell line (A10), mouse mammary epithelial cell line (HC-11) and human umbilical vessel endothelial cell line (HUVEC) were analyzed in the presence of 10% FBS. First, in DMEM culture medium containing 10% FBS in a 96-well culture plate, each cell line was inoculated at a concentration of 500 cells/well. Then, the cells were cultured for 24 hours in an incubator in which CO2 was maintained at 5%. Then, the respective concentrations of ECP and RNaseA (0 to 10 μM) were added, and the culture was continued for 48 hours in the same incubator. Then, 3-(4,5-dimethylthiazol-2-yl)-diphenyl-tetrazolium bromide (MTT) was added, and the proliferation rate of each cell line was obtained.

[6] = test system: aortic smooth muscle cell line (A10); assay: as above; format: cell-based; conditions: ECP 0 to 10 μM, 48 hours, FIG. 1
Description: as §1

[7] = test system: mouse mammary epithelial cell line (HC-11); assay: as above; format: cell-based; conditions: ECP 0 to 10 μM, 48 hours, FIG. 1
Description: as §1

[8] = test system: human umbilical vessel endothelial cell line (HUVEC); assay: as above; format: cell-based; conditions: ECP 0 to 10 μM, 48 hours, FIG. 1
Description: as §1

PC12 cells = assay: Survival of nerve like PC12 cells in serum-free medium, Cell Titer-Glo; format: cell-based; conditions: serum-free DMEM, 72 hours, ECP 10 and 1000 ng/ml, FIG. 11
Description: PC12 cells were cultured overnight in a 96-well culture plate at 1×10^4 cells/well/100 μl. As the culture medium, DMEM culture medium containing 10% FBS, penicillin, and streptomycin was used. Then, washing was performed once with 150 μl of DMEM, and the medium was changed to DMEM culture medium containing 100 μl of ECP, penicillin, and streptomycin. After cells were cultured for 72 hours, the number of living cells was counted using Cell Titer-GloTM Luminescent Cell Viability Assay (No. G7570; Promega).

MC3T3-E1 cells = assay: Alkali phosphatase (ALP) activity in osteoblast-like cells; format: cell-based, rat; conditions: ECP at 1 ng/ml vs BMP-4 100 ng/ml, 72 hours, FIG. 12
Description: MC3T3-E1 cells were inoculated into α-MEM medium in a 24-well culture plate, and ECP (at a final concentration of 1 ng, 10 ng, 100 ng or 1 μg per ml), BMP-4 (100 ng/ml) or bFGF (100 ng/ml) was added. After 72 hours, the cells were washed with 10 mM Tris-HCl (pH 7.2) solution twice, and lysed in 10 mM Tris-HCl (pH 7.2) solution containing 0.1% Triton-X100. Then, the cell lysis solution was subjected to sonication treatment for 15 seconds to homoginize the cells. Then, 100 μl of the homogenized cell solution and 0.1 M aminomethyl propanol were mixed with 100 μl of a substrate solution (4 mg/ml p-nitorophenyl phosphate and 2 mM MgCl2) adjusted at pH 10.5, and they were reacted with each other at 37° C. for 30 minutes. The reaction was terminated with 0.5 M NaOH, and the absorbance at 410 nm was measured. The obtained value was divided by the total amount of proteins in the homogenized cell solution, whereby the specific activity was calculated.

BALB/c 3T3 cells [9] = assay: Cytoskeletal molecule (stress fiber) formation in low-serum medium, confocal immunostaining; format: cell-based, mouse; conditions: 0.5% FBS, 1 μM ECP, 6 hours, FIG. 5
Description: A round cover glass with a diameter of 15 mm which had been sterilized in advance was placed in a 24-well culture plate, 1× phosphate buffer (PBS) containing 0.1% gelatin was added to each well so that the cover glass was sufficiently dipped in the solution. Then, the plate was left at room temperature for 30 minutes, whereby the cover glass was coated with gelatin. Then, each well was filled with DMEM culture medium containing 10% FBS, and BALB/c 3T3 cells were inoculated at a concentration of 2×10^4 cells/well and cultured. […] After an additional 24 hours, 1 μM ECP or RNaseA was added to the culture solution, respectively. After 6 hours, the cover glass on which BALB/c 3T3 cells were grown, was taken out from the well, washed 2 to 3 times with 1× PBS, then dipped in 4% formaldehyde (Wako Pure Chemical Industries, Ltd.) at room temperature for 10 minutes, whereby the cells were fixed. Then, the cover glass was washed 2 to 3 times with 1× PBS, dipped in 1× PBS containing 0.1% Trton-X100 for 10 minutes, whereby the cell membranes were lysed. Then, the cover glass was washed 2 to 3 times with 1× PBS, dipped in 0.5% BSA/PBS and left at room temperature for 30 minutes, whereby a nonspecific adsorption region was blocked with BSA in this operation. […]

Molecule	cell proliferation in low-serum medium (phase-contrast observation) (BALB/c 3T3 cells [1])	cell proliferation (number of living cells) (BALB/c 3T3 A31-K cells)	time-course cell proliferation (number of living cells) (BALB/c 3T3 cells [2])	number of heartbeats of myocardial cell [3]	effect on cardiac hypertrophy in myocardial cell (immunofluorescence staining) [4]	cell proliferation (proliferation rate, MTT) [5]	cell proliferation (proliferation rate, MTT) [6]	cell proliferation (proliferation rate, MTT) [7]	cell proliferation (proliferation rate, MTT) [8]	survival of nerve cells (number of living cells) (PC12 cells)	ALP activity (specific activity, control = 100%) (MC3T3-E1 cells)	formation of cytoskeletal molecules (stress fibers) (BALB/c 3T3 cells [9])
bFGF: bFGF, added at 60 pM to low-serum culture	The cells were proliferated	–	–	–	–	–	–	–	–	–	–	–
B1	–	could not be observed	–	–	–	–	–	–	–	–	–	–
B2	–	significantly promoted the cell proliferation at any concentration	the proliferation of cells was significantly promoted	increased in a dose-dependent manner	an effect of ECP on cardiac hypertrophy in a myocardial cell was confirmed	the cell proliferation was promoted	the proliferation was not promoted or the proliferation was inhibited	the proliferation was not promoted or the proliferation was inhibited	the proliferation was not promoted or the proliferation was inhibited	the survival of nerve cells was maintained	equal to or higher than that of BMP-4	increase in the formation of many cytoskeletal molecules (stress fibers) was confirmed
